Targets include IMP2 KH3 VL MUT (KH34) (UniProt Q9Y6M1); IMP2 KH34 double VL MUT (UniProt Q9Y6M1); IMP2 KH4 VL MUT (KH34) (UniProt Q9Y6M1).
Assay in all cases: EMSA
Details in all cases: EMSA: 100 pM RNA, 10 mM Tris, 100 mM NaCl, 0.1 mM EDTA, 0.01 mg/mL tRNA, 50 ug/mL heparin, 0.01% IGEPAL CA630, room temperature, 3 h; pH not stated

Broadly, the Kd is the constant that tells how readily two partners part at equilibrium.

IMP2 KH34 double VL MUT, sequence (Q9Y6M1 whole entry): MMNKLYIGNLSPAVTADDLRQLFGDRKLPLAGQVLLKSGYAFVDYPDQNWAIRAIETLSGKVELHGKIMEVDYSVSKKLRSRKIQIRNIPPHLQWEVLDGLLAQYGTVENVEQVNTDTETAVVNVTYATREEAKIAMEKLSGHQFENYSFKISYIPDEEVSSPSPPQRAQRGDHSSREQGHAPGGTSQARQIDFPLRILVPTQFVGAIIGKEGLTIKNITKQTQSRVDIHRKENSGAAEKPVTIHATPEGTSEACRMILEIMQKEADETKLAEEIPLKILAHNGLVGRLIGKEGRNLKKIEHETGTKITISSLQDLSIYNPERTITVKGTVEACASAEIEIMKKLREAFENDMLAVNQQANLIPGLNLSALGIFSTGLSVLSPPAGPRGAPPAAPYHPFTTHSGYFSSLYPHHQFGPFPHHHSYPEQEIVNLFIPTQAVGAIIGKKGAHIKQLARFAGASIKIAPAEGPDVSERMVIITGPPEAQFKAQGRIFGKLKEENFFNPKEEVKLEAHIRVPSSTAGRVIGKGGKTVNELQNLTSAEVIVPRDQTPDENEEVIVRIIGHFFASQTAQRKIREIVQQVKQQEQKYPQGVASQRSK
IMP2 KH4 VL MUT (KH34), sequence (Q9Y6M1 whole entry): as above
IMP2 KH3 VL MUT (KH34), sequence (Q9Y6M1 425-581): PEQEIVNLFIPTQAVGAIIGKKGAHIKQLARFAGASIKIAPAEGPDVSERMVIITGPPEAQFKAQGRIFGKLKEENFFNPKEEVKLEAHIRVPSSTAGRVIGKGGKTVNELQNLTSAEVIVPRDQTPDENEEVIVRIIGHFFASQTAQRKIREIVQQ

In the case of “ACCGGACUGUUACCAACACCCACACCCC [C28 beta-actin zipcode WT]”, the Kd in the data set with IMP2 KH3 VL MUT (KH34) worked out at 7.3 nM; in the data set with IMP2 KH34 double VL MUT, 26.5 nM; with IMP2 KH4 VL MUT (KH34), 346 nM.

Values taken from PMC6768852.
